According to US20030008820A1:

Molecular target: FGFR on smooth muscle cells (SMC) isolated from bovine aorta (bovine)
Experiment: cell-based or functional assay

Row | fold activity in promoting SMC proliferation compared to wild-type FGF2 | molar concentration required to achieve half maximal proliferation of SMC ([3H] thymidine incorporation, no chlorate) | proliferation of chlorate-treated (HLGAG-depleted) SMC, percent of full proliferation | Substance
1 | 4.5 fold | 60 pM | 80% | dFGF2, tandemly-linked dimeric FGF2, as purified with N-terminal His tag and C-terminal T7 tag (ligand)
2 |  | 270 pM |  | Recombinant human wild-type FGF2 (ligand)
